Data on ten molecules can be found in US20210030838A1, “CHEMOTAXIS-POTENTIATING PEPTIDES AND USES THEREOF” (University of Copenhagen, priority 2017, published 2021).

For one assay, the target named is T1, CCR7 (Homo sapiens, UniProt P32248).
T1 construct: expressed in transfected cells; host or cells: CHO cells, transient lipofectamine co-transfection with the Camyel cAMP BRET sensor
T1 sequence (P32248 25-378): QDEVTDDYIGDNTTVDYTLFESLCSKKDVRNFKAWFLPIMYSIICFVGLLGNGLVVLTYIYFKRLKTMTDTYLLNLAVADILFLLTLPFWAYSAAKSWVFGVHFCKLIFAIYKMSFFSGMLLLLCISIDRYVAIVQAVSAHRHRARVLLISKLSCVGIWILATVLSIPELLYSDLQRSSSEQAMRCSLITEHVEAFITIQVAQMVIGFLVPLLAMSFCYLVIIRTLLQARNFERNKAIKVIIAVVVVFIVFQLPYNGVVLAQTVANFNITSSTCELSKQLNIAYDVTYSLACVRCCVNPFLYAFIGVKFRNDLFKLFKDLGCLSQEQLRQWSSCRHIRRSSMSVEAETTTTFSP
The assay is described as follows: CCR7 signalling via Gαi (cAMP decrease, Camyel BRET) in transfected CHO cells. The assay is classed as cell-based. The settings on record: BRET ratio; for G-protein signalling via CCR7 induced by the chemokine itself (comparison): FIG. 4A-D; for effect of peptide on CCL19-induced CCR7 signalling / effect of peptide on CCL19 chimera-induced CCR7 signalling / effect of peptide on full-length CCL21-induced CCR7 signalling / effect of peptide on tailless CCL21-induced CCR7 signalling: peptide 10 μM. How it is done: CCR7 signalling induced by CCL19, CCL21, CCL19 chimera (CCL19 with CCL21 tail) and tailless CCL21 was investigated. Signalling was detected as a decrease in cAMP which is reflected by an increase in BRET (Bioluminescence resonance energy transfer) ratio.
CHO cells were grown in RPMI medium with 10% FBS and 1% Penicillin/Streptomycin. Cells where seeded in a concentration yielding 1,000,000 cells/well on transfection day (using 6-well-plates).
Cells were transfected with CCR7 and Camyel-encoding plasmids (in 1:5 ratio) using lipofectamine with a total of […] of DNA and […] lipofectamine per well. After 24 hours, the cells where washed in PBS and resuspended in PBS with glucose (final concentration 5 mM).
After harvesting, cells where pooled in two groups. One group was used as a control, whereas the other was supplemented with SEQ ID NO: 1 (CCL21 tail peptide (D1-4)) in a final concentration of 10 μM.
The cells where plated in a 96-well black-white iso plate according to setup. Coelenterazine (final concentration of 5 μM) was added and cells were incubated for 10 min. The 4 ligands (CCL19, CCL21, CCL19 chimera, and tailless CCL21) were added to respective wells. An equal amount chemokine buffer was added to wells without ligands. Forskolin was added to the wells 5 min after addition of ligands.
The BRET ratio was measured as the ratio eYFP/RLuc (BRET 525 emission/BRET 485 emission). In the absence of ligand, bioluminescence resonance energy transfer (BRET) between RLuc and eYFP, both harboured by the Camyel sensor, is high, giving rise to emission from both RLuc and eYFP and a concomitant high BRET ratio. When cAMP binds to the camyel sensor, bioluminescence resonance energy transfer from RLuc to eYFP is decreased, lowering emission from eYFP and thus lowering the BRET ratio. This means that stimulation of receptors that signal via an increase in cAMP leads to a decrease in BRET ratio. The opposite is the case upon stimulation of chemokine receptors that signal via a decrease in cAMP, giving rise to an increase in eYFP and thus BRET ratio.
(Bioluminescence resonance energy transfer reports proximity on the nanometre scale.)

The next assay deals with neutrophil. The settings on record: through inhibition of GAG-binding of CXCL8; cited from earlier work.
For assay [1], the system named is monocyte derived human DCs (moDC). Briefly: Ibidi 3D μ-slide chemotaxis assay of monocyte derived human DCs (moDC). The assay is classed as cell-based. The settings on record: for potentiating effect on CCL21 induced chemotaxis of moDC (in words): FIG. 3, 6, 7, 8; for potentiation of moDC chemotaxis induced by CCL19: CCL19 1 and 10 nM, FIG. 1 column 5-8. The protocol:
Ibidi3D μ-slide chemotaxis assay. Mature monocyte derived human DCs were thawed by adding pre-warmed X-vivo, 2% FCS and Glutamine, dissolving in a total of 10 ml of medium. After centrifugation (220×g, 5 min), the DCs were resuspended in fresh medium and left to acclimatize for 20 min.
The collagen mixture with cells was prepared according to the manufacturer's protocol. Briefly, 10 μl 7.5% NaHCO3 was mixed with 20 μl 10×MEM and 150 μl Pure Col was added. After mixing, 90 μl of a mixture of DCs (1×10^6 cells/ml) and CCL21 Tail peptide (final concentration 10 μM) was added. The cell/collagen solution was transferred to the ibidi μ-slide channel holding 6 μl. The collagen with cells was allowed to crosslink in the incubator for 45 minutes in a humidified petridish (holding napkins wetted in sterile water). While filling sink and source reservoirs, the channel and second reservoir were kept plugged. Medium with chemokine buffer (X-vivo 15, 2% HS, glutamine) and Tail-peptide was added to the sink (60 μl), and medium with chemokine plus Tail-peptide was added to the source (60 μl). The setup was transferred to Time-lapse. Cells were tracked for 10 hours and films were analyzed using Autozell tracking program. A population based chemotactic index (CI) was extracted using MatLab.

Assay [2] concerns CT26-FL3-luc cancer cells. Briefly: In vivo cancer growth of CT26-FL3-luc cells in Balb/c mice (bioluminescence, IVIS). The settings on record: FIG. 5; for tumor growth (bioluminescent signal, total flux): Balb/c mice. The protocol:
SEQ ID NO: 1 was tested for its effect on in vivo cancer growth in mice. Female Balb/c mice were injected intraperitoneally with 1.5×10^5 CT26-FL3-luc cancer cells on day 0. The CT26-FL3-luc cell line is derived from a highly metastatic murine colorectal cancer and has been engineered to express luciferase. On days 1, 2, and 3, the mice were injected intraperitoneally with either 0.25 μg murine CCL21, 20 μg human CCL21-Tail peptide (SEQ ID NO: 1), or vehicle (PBS). The CCL21 concentration was determined based on previously published in vivo experiments using CCL21. Administration of SEQ ID NO: 1 functions by a different mechanism than administration of CCL21 as SEQ ID NO: 1 affects the distribution of endogenous CCL21 in the surrounding tissue. Cancer growth was followed over time in live animals by injecting luciferin intraperitoneally and measuring the bioluminescent signal arising from the luciferase-expressing cancer cells using an In Vivo Imaging System (IVIS®) scanner. The bioluminescent signal (total flux) was used to quantify the cancer growth. The number of mice per group was 5-7, and data is shown as mean±SEM.

Assay [3] relates to monocyte derived human DCs (moDC). The assay is described as follows: Ibidi 3D μ-slide chemotaxis assay of monocyte derived human DCs (moDC). The assay is classed as cell-based. The settings on record: 10 nM CCL21; peptide dose dependent; FIG. 1 column 1-4.
In another assay the test system is tumour cells. The settings on record: CCL21 administered to tumor sites; cited from earlier work.

“CCL19: chemokine, endogenous ligand of CCR7”: the “G-protein signalling via CCR7 induced by the chemokine itself (comparison)” value in the assay with CCR7 is “more potent than CCL21”.
On to “CXCL9(74-103): CXCL9 C-terminal peptide capable of binding GAGs (Vanheule et al. 2017) (KKKQKNGKKHQKKKVLKVRKSQRSRQKKTT; UniProt Q07325 96-125, looked up, fragment)”, for which the CXCL8-induced neutrophil migration result with neutrophil is “inhibit CXCL8-induced neutrophil migration”.
Turning to “KDRGASKTG KKGKGSKGCK RTERSQTPKG P (KDRGASKTGKKGKGSKGCKRTERSQTPKGP; listed as Homo sapiens) [SEQ ID NO: 6, CCL21 82-111]”, in assay [1], the “potentiating effect on CCL21 induced chemotaxis of moDC (in words)” value (“potentiating effect” below) is given as “reduced capability to potentiate chemotaxis”.
As for “PSPQKPAQGC RKDRGASKTG K (PSPQKPAQGCRKDRGASKTGK; listed as Homo sapiens) [SEQ ID NO: 36, C terminally truncated fragment of CCL21 71-111]”, the “potentiating effect” value in assay [1] is on record as “did not potentiate chemotaxis”.
In the case of “PSPQKPAQGCRKDRGASKTGKKGKGSKGCKRTERSQTPKGP (PSPQKPAQGCRKDRGASKTGKKGKGSKGCKRTERSQTPKGP; listed as Homo sapiens) [SEQ ID NO: 1, full length C-terminal tail of CCL21, CCL21 71-111 (D1-D4)]”, in assay [1] (peptide 10 uM), the “potentiation of moDC chemotaxis induced by CCL19” value was “less than two fold”. Moreover, the “potentiation of moDC chemotaxis induced by CCL19” value in assay [1] (peptide 10 uM, listed as CCL21 71-111) was “only two fold”. Besides, the “potentiation of moDC chemotaxis induced by CXCL12gamma” value in assay [1] (CXCL12gamma 20 and 100 nM, peptide 10 uM, FIG. 1 column 9-12) is “no strong chemotaxis signal”. The “potentiating effect” value in assay [1] is listed as “retained full potency”. For the same molecule, in the assay with CCR7 (FIG. 4), the “effect of peptide on CCL19-induced CCR7 signalling” value was “no effect”, the “effect of peptide on CCL19 chimera-induced CCR7 signalling” value is reported as “potentiated”, the “effect of peptide on full-length CCL21-induced CCR7 signalling” value was “potentiated” and the “effect of peptide on tailless CCL21-induced CCR7 signalling” value was “no effect”. Besides, in the assay with CCR7 (FIG. 4, listed as CCL21 71-111), the “effect of peptide on CCL19-induced CCR7 signalling” value is given as “essentially no difference in CCR7 signalling”, the “effect of peptide on CCL19 chimera-induced CCR7 signalling” value is listed as “increased CCR7 signalling”, the “effect of peptide on full-length CCL21-induced CCR7 signalling” value is recorded as “increased CCR7 signalling” and the “effect of peptide on tailless CCL21-induced CCR7 signalling” value is recorded as “essentially no difference in CCR7 signalling”. For the same molecule, in assay [2] (20 μg peptide intraperitoneally on days 1, 2, 3), the “tumor growth (bioluminescent signal, total flux)” value was “decreased tumor growth”. Besides, the “effectiveness on tumor growth compared with CCL21 treatment” value in assay [2] (20 μg peptide vs 0.25 μg murine CCL21, intraperitoneally) is given as “more effective than treatment with the chemokine CCL21”. In assay [3], the “potentiation of moDC chemotaxis induced by CCL21” value is reported as “up to 26 fold”.
As for “RKDRGASKTGKKGKGSKGCKRTERSQTPKGP (RKDRGASKTGKKGKGSKGCKRTERSQTPKGP; listed as Homo sapiens) [SEQ ID NO: 4, CCL21 81-111 (D2-D4)]”, the “potentiating effect” value in assay [1] was “retained full potentiating effect”.
Take “TG KKGKGSKGCK RTERSQTPKG P (TGKKGKGSKGCKRTERSQTPKGP; listed as Homo sapiens) [SEQ ID NO: 13, CCL21 89-111]”: in assay [1], the “potentiating effect” value is recorded as “retain full potentiating effect”.

B1: SDGGAQDCCLKYSQRKIPAKVVRSYRKQEPSLGCSIPAILFLPRKRSQAELCADPKELWVQQLMQHLDKTPSPQKPAQGCRKDRGASKTGKKGKGSKGCKRTERSQTPKGP (protein, listed as Homo sapiens)
chain: SDGGAQDCCLKYSQRKIPAKVVRSYRKQEPSLGCSIPAILFLPRKRSQAELCADPKELWVQQLMQHLDKTPSPQKPAQGCRKDRGASKTGKKGKGSKGCKRTERSQTPKGP
notes: chemokine, endogenous ligand of CCR7; full length CCL21 without the signal peptide
As for B1, the “growth of tumour cells” value in the assay with tumour cells was “reduced growth of the tumour cells”.

B2: CCL19 chimera: CCL19 with CCL21 Tail peptide attached at the C-terminus (protein)
chain: GTNDAEDCCLSVTQKPIPGYIVRNFHYLLIKDGCRVPAVVFTTLRGRQLCAPPDQPWVERIIQRLQRTSAKMKRRSSPSPQKPAQGCRKDRGASKTGKKGKGSKGCKRTERSQTPKGP
As for B2, the “G-protein signalling via CCR7 induced by the chemokine itself (comparison)” value in the assay with CCR7 is given as “resembles CCL21 signalling”.

B3: murine CCL21: murine chemokine CCL21 injected intraperitoneally as comparison treatment (protein, UniProt P84444 24-133, looked up)
C-C motif chemokine 21a: SDGGGQDCCLKYSQKKIPYSIVRGYRKQEPSLGCPIPAILFSPRKHSKPELCANPEEGWVQNLMRRLDQPPAPGKQSPGCRKNRGTSKSGKKGKGSKGCKRTEQTQPSRG
With B3, the “tumor growth (bioluminescent signal, total flux)” value in assay [2] (0.25 μg murine CCL21 intraperitoneally on days 1, 2, 3) is given as “decreased tumor growth”.
